From patent US20210355194A1 (TWIST BIOSCIENCE, published 2021)

B1: 10-42 (VHH)
VHH: EVQLVESGGGLVQPGGSLRLSCAASGITIRTHAMGWFRQAPGKEREFVATISRSGGNTYYADSVKGRFTISADNSKNTAYLQMNSLKPEDTAVYYCTTAGVLRYFDWFRRPYWGQGTLVTVSS
B2: 10-48 (VHH)
VHH: EVQLVESGGGLVQPGGSLRLSCAASGRTFRRYAMGWFRQAPGKEREFVAAINRSGSTEYADSVKGRFTISADNSKNTAYLQMNSLKPEDTAVYYCARQHQDFWTGYYTVWGQGTLVTVSS
B3: 10-30 (VHH)
VHH: EVQLVESGGGLVQPGGSLRLSCAASGRTFSSFRFRAMGWFRQAPGKEREFVALIFSGGSTYYADSVKGRFTISADNSKNTAYLQMNSLKPEDTAVYYCAREWGRWLQRGSYWGQGTLVTVSS
B4: 10-57 (VHH)
VHH: EVQLVESGGGLVQPGGSLRLSCAASGRTFSRYAMGWFRQAPGKEREFVASITKFGSTNYADSVKGRFTISADNSKNTAYLQMNSLKPEDTAVYYCAKERESRFLKWRKTDWGQGTLVTVSS
B5: 10-22 (VHH)
VHH: EVQLVESGGGLVQPGGSLRLSCAASGRTYYAMGWFRQAPGKEREFVGAIDWSGRRITYADSVKGRFTISADNSKNTAYLQMNSLKPEDTAVYYCARVRFSRLGGVIGRPIDSWGQGTLVTVSS
B6: 9-3 (VHH)
VHH: EVQLVESGGGLVQPGGSLRLSCAASGRTFSRYAMGWFRQAPGKEREFVAAISRSGKSTYYADSVKGRFTISADNSKNTAYLQMNSLKPEDTAVYYCAASSVFSDLRYRKNPKWGQGTLVTVSS
B7: 9-8 (VHH)
VHH: EVQLVESGGGLVQPGGSLRLSCAASGRTFRRYPMGWFRQAPGKEREFVAAISRSGGSTYYADSVKGRFTISADNSKNTAYLQMNSLKPEDTAVYYCAAKRLRSFASGGSYDWGQGTLVTVSS
B8: 10-9 (VHH)
VHH: EVQLVESGGGLVQPGGSLRLSCAASGIPFRSRTMGWFRQAPGKEREFVAGITGSGRSQYYADSVKGRFTISADNSKNTAYLQMNSLKPEDTAVYYCARGARIFGSVAPWRGGNYYGMDVWGQGTLVTVSS
B9: 10-54 (VHH)
VHH: EVQLVESGGGLVQPGGSLRLSCAASGRTFSSARMGWFRQAPGKEREFVAGINMISSTKYADSVKGRFTISADNSKNTAYLQMNSLKPEDTAVYYCAHFRRFLPRGYVDYWGQGTLVTVSS
B10: 10-5 (VHH)
VHH: EVQLVESGGGLVQPGGSLRLSCAASGRSLGIYRMGWFRQAPGKEREFVAAITSGGRKNYADSVKGRFTISADNSKNTAYLQMNSLKPEDTAVYYCAKRTIFGVGRWLDPWGQGTLVTVSS
B11: 10-18 (VHH)
VHH: EVQLVESGGGLVQPGGSLRLSCAASGRMYNSYSMGWFRQAPGKEREFVARISPGGTFYADSVKGRFTISADNSKNTAYLQMNSLKPEDTAVYYCTTSARSGWFWRYFDSWGQGTLVTVSS
B12: 10-52 (VHH)
VHH: EVQLVESGGGLVQPGGSLRLSCAASGRFFSICSMGWFRQAPGKEREFVAGINWRSGGSTYYADSVKGRFTISADNSKNTAYLQMNSLKPEDTAVYYCARGSGWWEYWGQGTLVTVSS
B13: 10-11 (VHH)
VHH: EVQLVESGGGLVQPGGSLRLSCAASGRNFRRNSMGWFRQAPGKEREFVAGISWSGARTHYADSVKGRFTISADNSKNTAYLQMNSLKPEDTAVYYCARVSRRPRSPPGYYYGMDVWGQGTLVTVSS
B14: 9-1 (VHH)
VHH: EVQLVESGGGLVQPGGSLRLSCAASGRTFSRLAMGWFRQAPGKEREFVAAISRSGRSTSYADSVKGRFTISADNSKNTAYLQMNSLKPEDTAVYYCAARRSQILFTSRTDYEWGQGTLVTVSS
B15: 10-47 (VHH)
VHH: EVQLVESGGGLVQPGGSLRLSCAASGRPLRRYVMGWFRQAPGKEREFVAAITNGGSTKYADSVKGRFTISADNSKNTAYLQMNSLKPEDTAVYYCARGTPWRLLWFGTLGPPPAFDYWGQGTLVTVSS
B16: 10-13 (VHH)
VHH: EVQLVESGGGLVQPGGSLRLSCAASGGLTFSSNTMGWFRQAPGKEREFVASISSSGRTSYADSVKGRFTISADNSKNTAYLQMNSLKPEDTAVYYCARRVRRLWFRSYFDLWGQGTLVTVSS
B17: 10-31 (VHH)
VHH: EVQLVESGGGLVQPGGSLRLSCAASGRTFGSYGMGWFRQAPGKEREFVATISIGGRTYYADSVKGRFTISADNSKNTAYLQMNSLKPEDTAVYYCARGSGSGFMWYHGNNNYDRWRYWGQGTLVTVSS
B18: 10-43 (VHH)
VHH: EVQLVESGGGLVQPGGSLRLSCAASGRTFRRYHMGWFRQAPGKEREFVAAITSGGRTNYADSVKGRFTISADNSKNTAYLQMNSLKPEDTAVYYCTTDGLRYFDWFPWASAFDIWGQGTLVTVSS
B19: 10-45 (VHH)
VHH: EVQLVESGGGLVQPGGSLRLSCAASGRTFSWYPMGWFRQAPGKEREFVASISWGGARTYYADSVKGRFTISADNSKNTAYLQMNSLKPEDTAVYYCARSTGPRGSGRYRAHWFDSWGQGTLVTVSS
B20: 10-41 (VHH)
VHH: EVQLVESGGGLVQPGGSLRLSCAASGRNLRMYRMGWFRQAPGKEREFVALISRVGVTSYADSVKGRFTISADNSKNTAYLQMNSLKPEDTAVYYCARGTSFFNFWSGSLGRVGFDSWGQGTLVTVSS
B21: 10-28 (VHH)
VHH: EVQLVESGGGLVQPGGSLRLSCAASGSIFSIGMGWFRQAPGKEREFVARIWWRSGATYYADSVKGRFTISADNSKNTAYLQMNSLKPEDTAVYYCAAISIFGRLKWGQGTLVTVSS
B22: 10-26 (VHH)
VHH: EVQLVESGGGLVQPGGSLRLSCAASGRTFSGFTMSSTWMGWFRQAPGKEREFVAGIITNGSTNYADSVKGRFTISADNSKNTAYLQMNSLKPEDTAVYYCARRVAYSSFWSGLRKHMDVWGQGTLVTVSS
B23: 10-50 (VHH)
VHH: EVQLVESGGGLVQPGGSLRLSCAASGRTLSTYNMGWFRQAPGKEREFVASISRFGRTNYADSVKGRFTISADNSKNTAYLQMNSLKPEDTAVYYCARRGKLSAAMHWFDPWGQGTLVTVSS
B24: 10-17 (VHH)
VHH: EVQLVESGGGLVQPGGSLRLSCAASGRTFSIYAMGWFRQAPGKEREFVARITRGGITKYADSVKGRFTISADNSKNTAYLQMNSLKPEDTAVYYCARGLGWLLGYYWGQGTLVTVSS
B25: 10-40 (VHH)
VHH: EVQLVESGGGLVQPGGSLRLSCAASGRTFSTYTMGWFRQAPGKEREFVARIWRSGGNTYYADSVKGRFTISADNSKNTAYLQMNSLKPEDTAVYYCARGVRGVFRAYFDHWGQGTLVTVSS
B26: variant 6-5 (Fc fusion)
VHH: EVQLVESGGGLVQPGGSLRLSCAASGRTFTMGWFRQAPGKEREFVASTNSAGSTNYADSVNGRFTISADNSKNTAYLQMNSLKPEDTAVYYCTTVDQYFDYWGQGTLVTVSS
B27: variant 6-46 (Fc fusion)
VHH: EVQLVESGGGLVQPGGSLRLSCAASGLTFSAMGWFRQAPGKEREFVALIRRDGSTIYADSVKGRFTISADNSKNTAYLQMNSLKPEDTAVYYCAALGILFGYDAFDIWGQGTLVTVSS
B28: variant 6-37 (Fc fusion)
VHH: EVQLVESGGGLVQPGGSLRLSCAASGHTFSTSWMGWFRQAPGKEREFVATINSLGGTNYADSVKGRFTISADNSKNTAYLQMNSLKPEDTAVYYCARVSSGDYGMDVWGQGTLVTVSS
B29: variant 6-63 (Fc fusion)
VHH: EVQLVESGGGLVQPGGSLRLSCAASGQTFNMGWFRQAPGKEREFVAAIGSGGSTSYADSVKGRFTISADNSKNTAYLQMNSLKPEDTAVYYCWRLGNDYFDYWGQGTLVTVSS
notes: also called VHH nanobody 6-63
B30: variant 6-103 (Fc fusion)
VHH: EVQLVESGGGLVQPGGSLRLSCAASGRTSSPIAMGWFRQAPGKEREPVAVRWSDDYTYYADSVKGRFTISADNSKNTAYLQMNSLKPEDTAVYYCAKKLGGYYAFDIWGQGTLVTVSS
B31: variant 6-9 (Fc fusion)
VHH: EVQLVESGGGLVQPGGSLRLSCAASGFTFDYYAMGWFRQAPGKEREFVSAIDSEGRTSYADSVKGRFTISADNSKNTAYLQMNSLKPEDTAVYYCARWGPFDIWGQGTLVTVSS
B32: variant 6-52 (Fc fusion)
VHH: EVQLVESGGGLVQPGGSLRLSCAASGDTYGSYWMGWFRQAPGKEREVVAAITSGGSTVYADSVKGRFTISADNSKNTAYLQMNSLKPEDTAVYYCARVDSRFDYWGQGTLVTVSS
B33: variant 6-2 (Fc fusion)
VHH: EVQLVESGGGLVQPGGSLRLSCAASGFTMSSSWMGWFRQAPGKEREFVTVISGVGTSYADSVKGRFTISADNSKNTAYLQMNSLKPEDTAVYYCARGPDSSGYGFDYWGQGTLVTVSS
B34: variant 6-43 (Fc fusion)
VHH: EVQLVESGGGLVQPGGSLRLSCAASGRTFSSYAMMGWFRQAPGKEREFVASVNWDASQINYADSVKGRFTISADNSKNTAYLQMNSLKPEDTAVYYCTTLGAVYFDSSGYHDYFDYWGQGTLVTVSS

target: SARS-CoV-2 membrane protein on expressing cells (SARS-CoV-2, UniProt P0DTC5 1-222); test: not given

| Binder | MFI Ratio |
| --- | --- |
| B1 | 1.74 |
| B2 | 4.11 |
| B3 | 1.57 |
| B4 | 1.79 |
| B5 | 4.47 |
| B6 | 1.61 |
| B7 | 3.76 |
| B8 | 1.61 |
| B9 | 1.78 |
| B10 | 1.59 |
| B11 | 8.06 |
| B12 | 4.11 |
| B13 | 1.56 |
| B14 | 8.19 |
| B15 | 1.62 |
| B16 | 8.83 |
| B17 | 1.66 |
| B18 | 1.55 |
| B19 | 6.69 |
| B20 | 1.75 |
| B21 | 2.06 |
| B22 | 5.2 |
| B23 | 1.72 |
| B24 | 1.59 |
| B25 | 3.78 |

target: T1, Acro SARS-CoV-2 (COVID-19) S1 protein (SARS-CoV-2, UniProt P0DTC2 16-685); test: SPR
T1 construct: also called SARS-CoV-2 S1

| Binder | Kd |
| --- | --- |
| B26 | 24.9 nM |
| B27 | 18.1 nM |
| B28 | 22.5 nM |
| B29 | 21.8 nM |
| B30 | 23.6 nM |
| B31 | 18.5 nM |
| B32 | 31.2 nM |
| B33 | 29.9 nM |
| B34 | 17.9 nM |
